Measured values taken from article PMC9546846.

How the values were obtained:
[1] = target: N-cadherin (UniProt P15116); conditions: cited from earlier work
[2] = target: ddFP-B1-inserted NCad (NCad-B1) (mouse) (UniProt P15116); assay: split reporter (BiFC, NanoBiT); dimerization-dependent fluorescent protein; time-lapse of HEK293T cells each expressing one component, from seeding for 120 min, then 10 mM EGTA for 120 min; washout of EGTA in a further experiment
[3] = target: ddFP-B3-inserted NCad (NCad-B3) (mouse) (UniProt P15116); assay: as above
[4] = target: ddFP-B1-inserted NCad (NCad-B1) (mouse) (UniProt P15116); assay: split reporter (BiFC, NanoBiT); dimerization-dependent fluorescent protein; HEK293T cells co-expressing both components (mCherry-NLS) co-cultured with cells expressing NCad without fluorescent protein (EBFP2-NLS); signal at R-R against B-R cell adhesion sites
[5] = target: ddFP-B3-inserted NCad (NCad-B3) (mouse) (UniProt P15116); assay: as above

time to 50% of the signal after addition of 10 mM EGTA [2] [min] | time to 50% of the signal after addition of 10 mM EGTA [3] [min] | contrast of signal between R-R and B-R cell adhesion sites [4] | contrast of signal between R-R and B-R cell adhesion sites [5] | Substance | Kd [1] [µM]
– | – | – | – | N-cadherin (from UniProt P15116) | 25
50 | 50 | 5.31 | 7.72 | ddGFP-A-inserted NCad (NCad-GA) (from UniProt P15116 26-311; P15116 312-906) | –
